Tests used:
Test in all cases: holdup assay
Parameters in all cases: key: below the threshold = too weak to quantify, mostly under pKd 3.1 to 4
Details in all cases: plain residues with an end cap or a label only (N-terminal biotin on a linker: ado-ado)
DFNB31_2, Q9P202 = target: T1, DFNB31_2, Q9P202
T1 sequence (Q9P202 274-371, limits assumed, looked up): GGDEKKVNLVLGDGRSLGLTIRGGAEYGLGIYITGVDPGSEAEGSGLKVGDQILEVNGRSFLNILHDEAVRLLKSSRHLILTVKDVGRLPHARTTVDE

PCLO, Q9Y6V0 = target: T2, PCLO, Q9Y6V0
T2 sequence (Q9Y6V0 4491-4600, limits assumed, looked up): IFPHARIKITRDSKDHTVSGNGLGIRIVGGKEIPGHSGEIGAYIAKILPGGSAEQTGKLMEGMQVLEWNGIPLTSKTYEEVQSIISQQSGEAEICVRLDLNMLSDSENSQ

GRIP2_5, Q9C0E4 = target: GRIP2_5, Q9C0E4
FRMPD2_2, Q68DX3 = target: FRMPD2_2, Q68DX3
MPDZ_5, O75970 = target: T3, MPDZ_5, O75970
T3 sequence (O75970 695-796, limits assumed, looked up): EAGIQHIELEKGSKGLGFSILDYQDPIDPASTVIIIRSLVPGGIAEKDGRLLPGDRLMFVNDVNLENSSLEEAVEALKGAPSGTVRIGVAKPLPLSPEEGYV

DLG1_2, Q12959 = target: DLG1_2, Q12959
GRIP2_6, Q9C0E4 = target: GRIP2_6, Q9C0E4
MAST1, Q9Y2H9 = target: MAST1, Q9Y2H9
PDZD2_2, O15018 = target: T4, PDZD2_2, O15018
T4 sequence (O15018 329-429, limits assumed, looked up): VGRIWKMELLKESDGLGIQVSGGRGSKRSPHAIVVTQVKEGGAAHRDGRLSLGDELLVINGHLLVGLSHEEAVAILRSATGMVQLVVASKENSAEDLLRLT

SNTA1, Q13424 = target: T5, SNTA1, Q13424
T5 sequence (Q13424 82-180, limits assumed, looked up): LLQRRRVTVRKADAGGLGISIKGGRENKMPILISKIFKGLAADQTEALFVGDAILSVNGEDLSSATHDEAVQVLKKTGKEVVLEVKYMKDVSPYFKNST

DFNB31_3, Q9P202 = target: T6, DFNB31_3, Q9P202
T6 sequence (Q9P202 811-907, limits assumed, looked up): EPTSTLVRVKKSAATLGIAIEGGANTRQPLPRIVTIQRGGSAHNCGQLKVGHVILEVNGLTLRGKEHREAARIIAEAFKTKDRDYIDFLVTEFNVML

FRMPD2_3, Q68DX3 = target: FRMPD2_3, Q68DX3
GIPC2, Q8TF65 = target: GIPC2, Q8TF65
NHERF2_2, Q15599 = target: NHERF2_2, Q15599
NHERF3_1, Q5T2W1 = target: T7, NHERF3_1, Q5T2W1
T7 sequence (Q5T2W1 4-100, limits assumed, looked up): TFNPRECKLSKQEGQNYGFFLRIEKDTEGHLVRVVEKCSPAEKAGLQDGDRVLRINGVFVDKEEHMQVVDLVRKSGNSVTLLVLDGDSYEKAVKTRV

CARD11, Q9BXL7 = target: T8, CARD11, Q9BXL7
T8 sequence (Q9BXL7 662-765, limits assumed, looked up): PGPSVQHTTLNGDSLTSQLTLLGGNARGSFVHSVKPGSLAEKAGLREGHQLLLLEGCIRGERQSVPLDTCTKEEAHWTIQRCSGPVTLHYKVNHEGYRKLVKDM

MPP6, Q9NZW5 = target: T9, MPP6, Q9NZW5
T9 sequence (Q9NZW5 125-219, limits assumed, looked up): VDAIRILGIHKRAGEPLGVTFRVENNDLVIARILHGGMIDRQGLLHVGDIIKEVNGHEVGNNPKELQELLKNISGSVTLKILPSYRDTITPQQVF

GRASP, Q7Z6J2 = target: GRASP, Q7Z6J2
DLG1_1, Q12959 = target: DLG1_1, Q12959
LIN7A, O14910 = target: T10, LIN7A, O14910
T10 sequence (O14910 103-200, limits assumed, looked up): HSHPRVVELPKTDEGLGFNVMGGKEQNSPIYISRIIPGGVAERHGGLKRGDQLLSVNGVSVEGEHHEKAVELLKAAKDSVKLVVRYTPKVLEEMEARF

SIPA1L2, Q9P2F8 = target: T11, SIPA1L2, Q9P2F8
T11 sequence (Q9P2F8 945-1036, limits assumed, looked up): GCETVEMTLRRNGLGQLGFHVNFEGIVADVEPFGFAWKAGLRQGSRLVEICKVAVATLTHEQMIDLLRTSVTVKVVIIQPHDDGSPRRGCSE

DLG2_3, Q15700 = target: DLG2_3, Q15700
NHERF3_4, Q5T2W1 = target: T12, NHERF3_4, Q5T2W1
T12 sequence (Q5T2W1 373-468, limits assumed, looked up): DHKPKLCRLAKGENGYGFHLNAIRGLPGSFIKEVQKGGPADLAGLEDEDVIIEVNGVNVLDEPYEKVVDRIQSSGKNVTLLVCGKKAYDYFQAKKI

IL16_3, Q14005 = target: IL16_3, Q14005
GRID2IP_2, A4D2P6 = target: GRID2IP_2, A4D2P6
MAGI2_2, Q86UL8 = target: MAGI2_2, Q86UL8
Sequence of MAGI2_2, Q86UL8 (Q86UL8 410-522): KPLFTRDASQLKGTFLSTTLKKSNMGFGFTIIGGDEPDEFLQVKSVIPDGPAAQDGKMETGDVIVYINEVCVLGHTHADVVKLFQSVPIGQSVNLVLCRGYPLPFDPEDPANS

Sequence of MAST1, Q9Y2H9 (Q9Y2H9 962-1065): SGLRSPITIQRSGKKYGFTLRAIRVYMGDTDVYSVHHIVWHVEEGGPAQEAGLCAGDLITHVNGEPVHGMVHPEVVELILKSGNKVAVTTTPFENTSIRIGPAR
Sequence of GRIP2_5, Q9C0E4 (Q9C0E4 544-642): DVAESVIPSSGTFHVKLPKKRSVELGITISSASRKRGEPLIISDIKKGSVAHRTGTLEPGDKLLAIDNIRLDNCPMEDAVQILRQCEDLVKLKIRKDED
Sequence of FRMPD2_2, Q68DX3 (Q68DX3 944-1038): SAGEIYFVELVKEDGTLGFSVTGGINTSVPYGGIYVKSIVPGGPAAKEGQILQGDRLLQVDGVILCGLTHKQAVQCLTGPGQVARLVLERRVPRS
Sequence of NHERF2_2, Q15599 (Q15599 142-238): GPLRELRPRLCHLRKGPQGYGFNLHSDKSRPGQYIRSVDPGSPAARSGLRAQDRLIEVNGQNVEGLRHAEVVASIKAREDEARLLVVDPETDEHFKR
Sequence of GRIP2_6, Q9C0E4 (Q9C0E4 648-740): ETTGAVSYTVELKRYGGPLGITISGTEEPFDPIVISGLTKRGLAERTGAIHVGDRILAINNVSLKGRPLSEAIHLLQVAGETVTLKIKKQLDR
Sequence of FRMPD2_3, Q68DX3 (Q68DX3 1073-1166): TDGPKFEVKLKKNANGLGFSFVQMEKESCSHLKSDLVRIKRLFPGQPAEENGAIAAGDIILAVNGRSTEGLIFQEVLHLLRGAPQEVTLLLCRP
Sequence of IL16_3, Q14005 (Q14005 1107-1207): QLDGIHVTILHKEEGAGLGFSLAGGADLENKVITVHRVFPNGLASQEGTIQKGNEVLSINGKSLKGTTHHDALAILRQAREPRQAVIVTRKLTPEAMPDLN
Sequence of GRID2IP_2, A4D2P6 (A4D2P6 272-370): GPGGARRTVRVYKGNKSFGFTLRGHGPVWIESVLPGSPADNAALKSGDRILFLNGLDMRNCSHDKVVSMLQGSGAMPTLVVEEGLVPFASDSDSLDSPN
Sequence of GRASP, Q7Z6J2 (Q7Z6J2 96-193): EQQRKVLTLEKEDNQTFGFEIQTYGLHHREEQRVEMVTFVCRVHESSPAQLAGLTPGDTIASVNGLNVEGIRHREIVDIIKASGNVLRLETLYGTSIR
Sequence of GIPC2, Q8TF65 (Q8TF65 112-203): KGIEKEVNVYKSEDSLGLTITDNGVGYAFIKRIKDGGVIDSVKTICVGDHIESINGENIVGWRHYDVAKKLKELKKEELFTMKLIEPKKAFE

Binder | pKd (DFNB31_2, Q9P202) | pKd (PCLO, Q9Y6V0) | pKd (GRIP2_5, Q9C0E4) | pKd (FRMPD2_2, Q68DX3) | pKd (MPDZ_5, O75970) | pKd (DLG1_2, Q12959) | pKd (GRIP2_6, Q9C0E4) | pKd (MAST1, Q9Y2H9) | pKd (PDZD2_2, O15018) | pKd (SNTA1, Q13424) | pKd (DFNB31_3, Q9P202) | pKd (FRMPD2_3, Q68DX3) | pKd (GIPC2, Q8TF65) | pKd (NHERF2_2, Q15599) | pKd (NHERF3_1, Q5T2W1) | pKd (CARD11, Q9BXL7) | pKd (MPP6, Q9NZW5) | pKd (GRASP, Q7Z6J2) | pKd (DLG1_1, Q12959) | pKd (LIN7A, O14910) | further results
PRAEAEDSFL [PDGFRB, P09619] | below the threshold | below the threshold | below the threshold | 3.52 | below the threshold | 3.57 | below the threshold | 3.93 | 4.43 | 3.59 | below the threshold | 3.51 | 3.8 | 5.05 | 4.76 | below the threshold | 3.93 | 3.58 | below the threshold | 3.56 | pKd (SIPA1L2, Q9P2F8): below the threshold; pKd (DLG2_3, Q15700): below the threshold; pKd (NHERF3_4, Q5T2W1): below the threshold; pKd (IL16_3, Q14005): 3.5; pKd (GRID2IP_2, A4D2P6): 3.84; pKd (MAGI2_2, Q86UL8): 3.55
TKGPRGPTRV [SAPCD1, Q5SSQ6] | below the threshold | below the threshold | below the threshold | below the threshold | below the threshold | 4.68 | below the threshold | 4.09 | 3.88 | 4.39 | below the threshold | below the threshold | below the threshold | below the threshold | below the threshold | below the threshold | below the threshold | 4.59 | 4.38 | below the threshold | pKd (SIPA1L2, Q9P2F8): below the threshold; pKd (DLG2_3, Q15700): 4.55; pKd (NHERF3_4, Q5T2W1): below the threshold; pKd (IL16_3, Q14005): below the threshold; pKd (GRID2IP_2, A4D2P6): 4.58; pKd (MAGI2_2, Q86UL8): 5.42
VKPQVSESKL [ACOT8, O14734] | 3.62 | below the threshold | below the threshold | below the threshold | below the threshold | below the threshold | below the threshold | 4.77 | below the threshold | below the threshold | 3.71 | below the threshold | below the threshold | 4.56 | 5.33 | below the threshold | below the threshold | below the threshold | below the threshold | below the threshold | pKd (SIPA1L2, Q9P2F8): below the threshold; pKd (DLG2_3, Q15700): 3.74; pKd (NHERF3_4, Q5T2W1): below the threshold; pKd (IL16_3, Q14005): below the threshold; pKd (GRID2IP_2, A4D2P6): 3.55; pKd (MAGI2_2, Q86UL8): 3.64
FNSYSLTGYV [CLDN2, P57739] | below the threshold | below the threshold | below the threshold | below the threshold | below the threshold | 3.49 | below the threshold | 3.94 | 4.65 | 3.64 | below the threshold | 4.28 | below the threshold | below the threshold | 4.35 | below the threshold | below the threshold | 3.82 | below the threshold | below the threshold | pKd (SIPA1L2, Q9P2F8): 3.5; pKd (DLG2_3, Q15700): below the threshold; pKd (NHERF3_4, Q5T2W1): below the threshold; pKd (IL16_3, Q14005): below the threshold; pKd (GRID2IP_2, A4D2P6): 3.68; pKd (MAGI2_2, Q86UL8): 3.67

The next lines start with results.

pKd (DFNB31_2, Q9P202) | pKd (PCLO, Q9Y6V0) | pKd (GRIP2_5, Q9C0E4) | pKd (FRMPD2_2, Q68DX3) | pKd (MPDZ_5, O75970) | pKd (DLG1_2, Q12959) | pKd (GRIP2_6, Q9C0E4) | pKd (MAST1, Q9Y2H9) | pKd (PDZD2_2, O15018) | pKd (SNTA1, Q13424) | pKd (DFNB31_3, Q9P202) | pKd (FRMPD2_3, Q68DX3) | pKd (GIPC2, Q8TF65) | pKd (NHERF2_2, Q15599) | pKd (NHERF3_1, Q5T2W1) | pKd (CARD11, Q9BXL7) | pKd (MPP6, Q9NZW5) | pKd (GRASP, Q7Z6J2) | pKd (DLG1_1, Q12959) | pKd (LIN7A, O14910) | Binder | further results
below the threshold | below the threshold | below the threshold | below the threshold | below the threshold | below the threshold | 3.56 | below the threshold | below the threshold | below the threshold | 3.85 | below the threshold | below the threshold | below the threshold | 3.79 | below the threshold | 3.91 | below the threshold | below the threshold | below the threshold | KKAPTNEFYA [SDC4, P31431] | pKd (SIPA1L2, Q9P2F8): below the threshold; pKd (DLG2_3, Q15700): 3.62; pKd (NHERF3_4, Q5T2W1): below the threshold; pKd (IL16_3, Q14005): below the threshold; pKd (GRID2IP_2, A4D2P6): below the threshold; pKd (MAGI2_2, Q86UL8): below the threshold
below the threshold | below the threshold | below the threshold | 4.19 | below the threshold | 4.69 | below the threshold | 4.36 | 5.27 | 4.93 | below the threshold | 3.54 | 4.37 | 3.63 | 4.01 | below the threshold | below the threshold | 3.48 | 4.19 | below the threshold | QGPVETESVV [SLC45A4, Q5BKX6] | pKd (SIPA1L2, Q9P2F8): below the threshold; pKd (DLG2_3, Q15700): below the threshold; pKd (NHERF3_4, Q5T2W1): below the threshold; pKd (IL16_3, Q14005): below the threshold; pKd (GRID2IP_2, A4D2P6): 3.55; pKd (MAGI2_2, Q86UL8): 3.78

Reference: PMC9482650, “Quantitative fragmentomics allow affinity mapping of interactomes” (Nature Communications, 2022)
